In publication PMC6975058:

How the values were obtained:
[1] = biological target: trastuzumab light chain produced alone in HEK293 (in vivo folded LC); assay: denaturing, non-reducing SDS-PAGE; MiniProtean TGX Stain-free gels 4-20%, band densitometry; shows only disulfide-linked species
[2] = biological target: trastuzumab light chain produced alone in HEK293 (in vivo folded LC); assay: SEC; SEC-HPLC under native conditions, Zenix-C SEC-300, mobile phase PBS, 0.35 ml/min, absorbance at 214 nm; the isolated chain alone
[3] = biological target: trastuzumab heavy chain produced alone in HEK293 (in vivo folded HC); assay: denaturing, non-reducing SDS-PAGE; MiniProtean TGX Stain-free gels 4-20%, band densitometry; shows only disulfide-linked species
[4] = biological target: trastuzumab light chain, refolded in vitro by slow dialysis; assay: SEC; SEC-HPLC under native conditions, Zenix-C SEC-300, mobile phase PBS, 0.35 ml/min, absorbance at 214 nm; the isolated chain alone

**Q.** Which results are given for “trastuzumab light chain produced alone in HEK293 (in vivo folded LC) (domain or fragment)”?
**A.** percent of LC in the 42 KDa band under denaturing conditions [1]: 55%; stoichiometry N [2]: 2

**Q.** How did the stoichiometry N [3] turn out when “trastuzumab heavy chain produced alone in HEK293 (in vivo folded HC) (domain or fragment)” was run?
**A.** The stoichiometry N was 2.

**Q.** For “trastuzumab light chain, refolded in vitro by slow dialysis (domain or fragment)”, which stoichiometry N [4] is on record?
**A.** The stoichiometry N was 2.
